Data as given in patent US20060263802A1.

Tests used:
[1] = target: linear peptide … (rabies virus strain ERA); assay: PEPSCAN ELISA, linear peptide, 10 µg/ml
[2] = target: linear peptide … (rabies virus strain ERA); assay: PEPSCAN ELISA, linear peptide, antibody 10 µg/ml

Binder	OD [1]	OD value [2]
human monoclonal antibody CRJA (antibody, V domains shown) VH: EVQLLESGGGLVQPGGSLRLSCAASGFTFSNYAMSWVRQAPGKGLEWVSAISASGHSTYLADSVKGRFTISRDNSKNTLYLQMNSLRAEDTAVYYCAKDREVTMIVVLNGGFDYWGQGTRVTVSS VL: EIVLTQSPATLSLSPGERATLACRASQTASRYLAWYQQKPGQAPRLLIYDTSNRATGIPARFSGSGSGTDFTLSISSLEPEDFAVYYCQQRFNWPWTFGQGTKVEFK	96 OD	1030
human monoclonal antibody CR57 (antibody, V domains shown) VH: QVQLVQSGAEVKKPGSSVKVSCKASGGTFNRYTVNWVRQAPGQGLEWMGGIIPIFGTANYAQRFQGRLTITADESTSTAYMELSSLRSDDTAVYFCARENLDNSGTYYYFSGWFDPWGQGTLVTVSS VL: QSALTQPRSVSGSPGQSVTISCTGTSSDIGGYNFVSWYQQHPGKAPKLMIYDATKRPSGVPDRFSGSKSGNTASLTISGLQAEDEADYYCCSYAGDYTPGVVFGGGTKLTVL	–	364
